Patent US10400249B2, “HPPD variants and methods of use” (priority 2014, dated 2019)
Positions count from the first letter of the chain named. Numbers in names are those of the source.

B1: PfEvo43: PfHPPD variant E335P, G336F (protein)
chain: MADLYENPMGLMGFEFIEFASPTPGTLEPIFEIMGFTKVATHRSKNVHLYRQGEINLILNNEPNSIASYFAAEHGPSVCGMAFRVKDSQKAYNRALELGAQPIHIDTGPMELNLPAIKGIGGAPLYLIDRFGEGSSIYDIDFVYLEGVERNPVGAGLKVIDHLTHNVYRGRMVYWANFYEKLFNFREARYFDIKGEYTGLTSKAMSAPDGMIRIPLNEESSKGAGQIEEFLMQFNGEGIQHVAFLTDDLVKTWDALKKIGMRFMTAPPDTYYEMLEGRLPDHGEPVDQLQARGILLDGSSVEGDKRLLLQIFSETLMGPVFFEFIQRKGDDGFGPFNFKALFESIERDQVRRGVLTAD
modifications: HPPD variant - PfEvo43
notes: PfHPPD variant E335P, G336F
B2: FLP129: PfHPPD variant E335P, G336F, K339A, A340Q (protein)
chain: B1 chain with K339A, A340Q
modifications: HPPD variant - FLP129
notes: PfHPPD variant E335P, G336F, K339A, A340Q
B3: PfEvo33: reference PfHPPD mutant E335P, G336W (protein)
chain: B1 chain with F336W
modifications: HPPD variant - PfEvo33
B4: FLP130: PfHPPD variant E335P, G336F, A340E (protein)
chain: B1 chain with A340E
modifications: HPPD variant - FLP130
notes: PfHPPD variant E335P, G336F, A340E
B5: PfG336W: reference PfHPPD mutant G336W (protein)
chain: B1 chain with P335E, F336W
modifications: HPPD variant - Pf336W
B6: PfG336Y: reference PfHPPD mutant G336Y (protein)
chain: B1 chain with P335E, F336Y
modifications: HPPD variant - Pf336Y

These molecules were tested on Pseudomonas fluorescens HPPD protein (assay: brown color assay: HPPD extracts spotted on solid media containing tyrosine and an HPPD inhibitor). Conditions: TBT, DKN and mesotrione 500-2000 uM, compared with PfHPPD and PfEvo33.
Format: biochemical
Procedure: A specific, although non-limiting, type of assay that can be used to evaluate the HPPD sequences of the invention is a colorimetric assay. In this assay, a YT-broth-type culture medium with 1% agarose, 5 mM L-Tyrosine and 42 mM Succinate, which contains the selection agent for the vector pSE420 (Invitrogen, Karlsruhe, Germany) or a modified version of pSE420 (pSE420(RI)NX) is poured into deep well plates. E. coli culture in the exponential growth phase which contains the vector pSE420-HPPDx (HPPDx means any gene coding for a putative HPPD enzyme/protein) is applied to each well.
The HPPD PfEvo33 mutant (described in International Patent Application No PCT/US2013/59598 (filed on Sep. 13, 2013) and set forth herein as SEQ ID NO:5) was mutagenized at positions 334 and 336. Saturated mutagenesis of these positions was carried out using the QUIKCHANGE® lightning kit. Mutants were pooled and transformed into DH5alpha E. coli cells. Six hundred individual clones were screened for tolerance to the HPPD inhibitor tembotrione (TBT). The clones were grown in LB media plus kanamycin at 37 degrees C. in a shaker until an OD600 nm of 0.3 was reached. Cultures were then switched to 30 degrees C. and incubated for an additional 17 hours. Cultures were spun down and cell pellets resuspended in 10 mM Hepes/KOH pH 7.6, 4 mM MgCl2, 1 mM DTT. […]
The mutants were analyzed using a brown color assay. […]

| Molecule | brown color formation in presence of HPPD inhibitors |
| --- | --- |
| B1 | darkest color |

Each molecule was assayed on Pseudomonas fluorescens HPPD protein (assay: OD assay: HPPD activity and pI50 from HPP remaining after derivatisation with DNP). Conditions: HPPD enzyme activity of the clone.
Format: biochemical
In short: (§1)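 Purified Pseudomonas fluorescens HPPD, room temperature. OD assay: 50 mM Tris-HCl pH 7.8, 0.5 mM HPP, 10 mM ascorbate, catalase, 24 min, remaining HPP derivatised with DNP, read at 405 nm, inhibitor 5.0×10^−6 to 5.0×10^−4 M. HGD assay: 200 mM Tris-HCl pH 7.6, 600 μM HPP, 20 μM FeSO4, coupled HGA dioxygenase, initial rates at 318 nm, inhibitor ≤100 μM, time-course gives inhibition type; pI50 from 4-parameter fits.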

| Molecule | Activity DeltaE/24 min μg Protein [DeltaE/24 min μg Protein] |
| --- | --- |
| B1 | 0.39 |
| B2 | 0.36 |
| B3 | 0.25 |
| B4 | 0.39 |
| B5 | 0.40 |
| B6 | 0.66 |

Same assay, conditions: inhibitor Cmpd. 2

| Molecule | tolerance (pI50) Cmpd. 2 |
| --- | --- |
| B1 | >5.6 |
| B2 | 5.4 |
| B4 | 5.5 |

Same assay, conditions: inhibitor diketonitrile (DKN), negative log of molar concentration

| Molecule | tolerance (pI50) DKN |
| --- | --- |
| B1 | 4.1 |
| B2 | 3.3 |
| B3 | 4.3 |
| B4 | 3.2 |
| B5 | 5.0 |
| B6 | 5.2 |

Same assay, conditions: inhibitor mesotrione (MST)

| Molecule | tolerance (pI50) MST |
| --- | --- |
| B1 | 4.6 |
| B2 | 3.7 |
| B3 | 5.1 |
| B4 | 3.7 |
| B5 | 5.3 |
| B6 | 5.5 |

Same assay, conditions: inhibitor tembotrione (TBT)

| Molecule | tolerance (pI50) TBT |
| --- | --- |
| B2 | 4.8 |
| B4 | 4.8 |

The molecules below were run on Pseudomonas fluorescens HPPD protein (assay: HGD assay: HPPD activity coupled to HGA dioxygenase, pI50 and type of inhibition (time-course)). Conditions: not given.
Format: biochemical
In short: as §1

| Molecule | mechanism of inhibition by diketonitrile (DKN), time-course of inhibition | mechanism of inhibition by mesotrione (MST), time-course of inhibition | mechanism of inhibition by tembotrione (TBT), time-course of inhibition |
| --- | --- | --- | --- |
| B1 | fully reversible inhibition | fully reversible inhibition | fully reversible inhibition |
| B2 | fully reversible inhibitors | fully reversible inhibitors | fully reversible inhibitors |
| B4 | fully reversible inhibitors | fully reversible inhibitors | fully reversible inhibitors |

Same assay, conditions: inhibitor Cmpd. 1; HGD assay

| Molecule | tolerance (pI50) Cmpd. 1 |
| --- | --- |
| B2 | 6.1 |
| B4 | 6.2 |
| B5 | 6.2 |

Same assay, conditions: inhibitor Cmpd. 2; HGD assay

| Molecule | tolerance (pI50) Cmpd. 2 |
| --- | --- |
| B2 | 5.8 |
| B4 | 6.2 |
| B5 | 6.8 |

Same assay, conditions: inhibitor Cmpd. 3; HGD assay

| Molecule | tolerance (pI50) Cmpd. 3 |
| --- | --- |
| B2 | 5.9 |
| B4 | 6.4 |
| B5 | 6.4 |

Same assay, conditions: inhibitor Cmpd. 4; HGD assay

| Molecule | tolerance (pI50) Cmpd. 4 |
| --- | --- |
| B2 | 6.6 |
| B4 | 6.6 |
| B5 | 6.7 |

Same assay, conditions: inhibitor Cmpd. 5; HGD assay

| Molecule | tolerance (pI50) Cmpd. 5 |
| --- | --- |
| B2 | 6.1 |
| B4 | 6.0 |
| B5 | 6.1 |

Same assay, conditions: inhibitor diketonitrile (DKN); HGD assay

| Molecule | tolerance (pI50) DKN |
| --- | --- |
| B1 | 4.0 |
| B2 | 4.6 |
| B3 | 4.6 |
| B4 | 4.3 |
| B6 | 4.9 |

Same assay, conditions: inhibitor mesotrione (MST); HGD assay

| Molecule | tolerance (pI50) MST |
| --- | --- |
| B1 | 5.1 |
| B2 | 5.0 |
| B3 | 5.5 |
| B4 | 5.3 |
| B5 | 5.5 |
| B6 | 5.0 |

Same assay, conditions: inhibitor tembotrione (TBT); HGD assay

| Molecule | tolerance (pI50) TBT |
| --- | --- |
| B1 | 6.0 |
| B2 | 6.2 |
| B3 | 6.2 |
| B4 | 6.2 |
| B5 | 6.1 |

These molecules were tested on T0 soybean plants (assay: greenhouse spray test of T0 soybean plants for tolerance to mesotrione). Conditions: Callisto 4 SC formulation, 3× field rate, 316 grams AI per hectare, one week after spraying.
Format: in vivo
Procedure: T0 soybean plants expressing an HPPD inhibitor tolerant enzyme of the present invention, along with a gene conferring tolerance to glyphosate and a gene conferring tolerance to glufosinate or having a “plant expression cassette”, which includes only an HPPD inhibitor tolerant enzyme of the present invention, were tested for tolerance to mesotrione. Prior greenhouse trials with the transgenic plants, soy transformants were routinely analyzed for the expression and presence of the transgenes using the ELISA protein detection method (see detailed description under item D and H). Only plants recovering in the selection media and having a detectable HPPD transgene protein expression were used for the herbicide tolerance analysis. A DeVries Tracker Sprayer was calibrated prior to each spraying. The chemical formulation used for mesotrione (MST) testing was Callisto® 4 SC formulation supplemented with ammonium sulfate and methylated rape seed oil (Actirob). Spray tests were conducted using 3× the field rate (equivalent to 9 fluid ounce per acre of the same herbicide formulation that containing 40% the active ingredient (AI), mesotrione), which equals 316 grams AI per hectare. Tolerance was evaluated one week after spraying. […] A tolerance rating of “0” was assigned to plants that their shoot apexes, newly emerged trifoliates and some axillary buds were completely bleached. A rating of “1” was assigned to plants having slight tolerance, i.e., the newest plant shoot tissues had some green leaves and are not bleached completely. A rating of “2” was assigned to plants showing moderate tolerance, i.e., more than 50% of the leaf area of the top three trifoliates showing no chlorosis or bleaching damage. A rating of “3” was assigned to plants showing nearly perfect tolerance, i.e., less than 10% of the leaf area showing chlorosis or very slight bleaching.

| Molecule | leaf damage of wild type soybean plants [%] |
| --- | --- |
| CS(=O)(=O)c1ccc(C(=O)C2C(=O)CCCC2=O)c([N+](=O)[O-])c1 [mesotrione, 2-[4-(methylsulfonyl)-2-nitrobenzoyl]-1,3-cyclohexanedione, reference compound] | 100 |

Same assay, conditions: HT-single plant expression cassette; mesotrione 3X field rate, 316 grams AI per hectare; seven days after treatment

| Molecule | Number of T0 soybean plants with herbicide tolerance rating 0 (completely bleached) | Number of T0 soybean plants with herbicide tolerance rating 1 (slight tolerance) | Number of T0 soybean plants with herbicide tolerance rating 2 (moderate tolerance) | Number of T0 soybean plants with herbicide tolerance rating 3 (nearly perfect tolerance) |
| --- | --- | --- | --- | --- |
| B1 | 1 | 13 | 25 | 34 |

Same assay, conditions: HT-triple plant expression cassette; mesotrione 3X field rate, 316 grams AI per hectare; seven days after treatment

| Molecule | Number of T0 soybean plants with herbicide tolerance rating 0 (completely bleached) | Number of T0 soybean plants with herbicide tolerance rating 1 (slight tolerance) | Number of T0 soybean plants with herbicide tolerance rating 2 (moderate tolerance) | Number of T0 soybean plants with herbicide tolerance rating 3 (nearly perfect tolerance) |
| --- | --- | --- | --- | --- |
| B1 | 6 | 18 | 26 | 20 |
| B2 | 13 | 18 | 35 | 12 |
| B4 | 3 | 18 | 39 | 11 |
